The values below come from publication PMC10776578, “Epstein-Barr virus-driven B cell lymphoma mediated by a direct LMP1-TRAF6 complex” (Nature Communications, 2024).

Data set [1] deals with LMP1-CL 40 B cell lymphoma. Briefly: CRISPR/Cas9 knockout, cell survival (selection score) of lymphoma LMP1-CL 40. The format is cell-based, mouse. On the set-up: key: Venus-neg d7 / mCherry+ d2, normalized to nontargeting gRNA (=1). The following applies: for cell survival (selection score), Figure 6 b: CRISPR guides. An excerpt:
(§1) The mouse LMP1 B cell tumors LMP1-CL 37 and 40 were derived from two B cell tumors arising in Rag2^KO;cγ^KO mice inoculated with primary tumor cells from Rag2^KO;cγ^KO mice reconstituted with fetal liver hematopoietic stem cells and progenitor cells from CD19-cre;R26-LMP1^STOPfl;CD3ε^KO animals as described. In these cells, a Venus expression cassette was targeted into the Rosa26 locus by CRISPR/CAS9 as described. Venus-LMP1 B cells were electroporated (Nucleofector, Lonza, human B cell program) with 1 µg of each of two pX330-mcherry-CAS9 vectors[83] encoding varying guide RNAs. In each approach, the first guide RNA (gRNA) targeted Venus while the second gRNA targeted either a nontargeting control sequence not present in the genome, or the gene of interest (GOI). The following gRNA sequences were used: nontargeting (NT) […], ICAM1 […], LMP1 #1 […], LMP1 #2 CCAAAACAGTAGCGCCAAG, LMP1 #3 AATCATCGGTAGCTTGTTG, TRAF6 #1 […], TRAF6 #2 […], TRAF6 #3 […]. The electroporation efficiency, measured as the frequency of mCherry-positive cells on day two after electroporation, was determined by flow cytometry with a Becton Dickinson LSRFortessa flow cytometer. On day seven, the loss of Venus was measured by flow cytometry as a surrogate marker for the number of surviving targeted cells. In the case of a lethal coexpressed GOI gRNA, Venus-negative cells will not survive, and their relative numbers are reduced. The given selection score is defined as the frequency of Venus-negative cells on day seven over the frequency of mCherry-positive cells on day two, normalized to the ratio observed with the nontargeting control gRNA. FACS data were analyzed by FlowJo software. The gating strategy is exemplified in Supplementary Fig. 5b. Animal housing and experiments to generate LMP1 lymphomas were approved by the Landesamt für Gesundheit und Soziales Berlin (G0049/15, G0374/13, and G0135/11). Mice were kept in groups in individually ventilated cages with a 12 h dark-light cycle at 22 ± 2 °C and 55 ± 5% relative humidity. They had access to food and water ad libitum, as well as to nest building material and shelter.

The subject of data set [2] is LMP1-CL 37 B cell lymphoma. Briefly: CRISPR/Cas9 knockout, cell survival (selection score) of lymphoma LMP1-CL 37. It counts as cell-based, mouse. On the set-up: key: Venus-neg d7 / mCherry+ d2, normalized to nontargeting gRNA (=1). The following applies: for cell survival (selection score), Figure 6 b: CRISPR guides.
Source text: as §1

Data set [3] relates to HA-LMP1. In words: Coimmunoprecipitation of HA-LMP1 with Flag-TRAF6 mutants in HEK293 cells. The format is cell-based, Epstein-Barr virus. The protocol:
Immunoblotting was essentially performed as described. Proteins were detected on nitrocellulose membranes (Bio-Rad, #1620115) using the following primary antibodies: α−6*His-tag (clone 4A4 or 2F12, source: antibody facility of the Helmholtz Center Munich, hybridoma supernatants were used at a 1:10 dilution)[75], α-TRAF6 (H-274, Santa Cruz Biotech., #sc-7221, used at 1:1000), α-HA-tag (12CA5, Sigma-Aldrich, #11583816001, used at 0.4 µg per mL), α-IκBα (C-21, Santa Cruz Biotech., #sc-371, used at 1:500) and α-Tubulin (B-5-1-2, Santa Cruz Biotech., #sc-23948, used at 1:500). Horseradish peroxidase-coupled antibodies were used as secondary antibodies (Cell Signalling Technology, #7074 or #7076, respectively, both used at 1:5000). ECL signals were captured on X-ray films (Agfa Healthcare) and quantified by densitometry using the ImageJ software. Uncropped scans of immunoblots indicating molecular weights are provided in Supplementary Fig. 6.
HEK293 cells were transfected with 1 µg of pRK5-Flag TRAF6 plasmids, 1 µg of pCMV-HA-LMP1 and 6 µg of pRK5 per 10 cm cell culture dish using PolyFect Transfection Reagent (Qiagen, #301107) in RPMI without supplements. Cells were incubated with the plasmid transfection mix for 4 h before the medium was changed to RPMI full medium. After 24 h, the cells were lysed in NP40-lysis buffer (50 mM HEPES pH 7.5, 150 mM NaCl, 5 mM EDTA, 0.5 mM sodium orthovanadate, 0.5 mM PMSF, 0.5 mM sodium molybdate, and cOmplete protease inhibitor cocktail). Lysates were cleared by centrifugation at 15000 x g for 10 min at 4 °C, and the protein concentration was adjusted to 1 mg per mL. For immunoprecipitation 4 mL of lysate was incubated with the α-Flag antibody 6F7 (Sigma-Aldrich, #F3165; covalently coupled to protein-G-Sepharose) for 1 h at 4 °C. The beads were pelleted at 15000 x g for 30 seconds at 4 °C, washed twice with NP40-lysis buffer, and analyzed by immunoblotting.

The test system of data set [4] is GST-LMP1_181-386. Briefly: AlphaScreen PPI, TRAF6 mutants binding to LMP1. Details: species or system Epstein-Barr virus; TRAF6 binding to LMP1 (AlphaScreen), mean: unit not given here. The protocol:
(§2) Fig. 2 LMP1 binds to the receptor-interacting surface of TRAF6. a Mutations within the receptor-interacting surface of TRAF6 affect binding to LMP1. The TRAF6 mutants R392A, K469A, F471A, and Y473A were tested LMP1 in AlphaScreen PPI experiments with GST-LMP1_181-386. Data are mean values ± SD of three independent experiments. Statistics: one-way ANOVA. b TRAF6 R392A differentiates between CD40 and LMP1/RANK. AlphaScreen PPI experiments with GST-CD40_216-277. Data are mean values ± SD of three independent experiments. […] AlphaScreen PPI experiments with GST-RANK314-355. Data are mean values ± SD of four independent experiments. Statistics: one-way ANOVA. d TRAF6 mutants that fail to interact with LMP1 in PPI assays are also unable to bind cellular LMP1. HEK293 cells were co-transfected with HA-LMP1 and the indicated Flag-TRAF6 mutants. Flag-TRAF6 was immunoprecipitated (IP) via its Flag-tag and coprecipitated HA-LMP1 was detected on immunoblots by an α-HA antibody. Uncropped blots in Supplementary Fig. 6b. For statistical analysis LMP1 signals were digitalized and quantified (graph). Data are mean values ± SD of three independent experiments. […] TRAF6 recruitment is dependent on amino acids 371 − 386 of LMP1 (small panel). Confocal microscopy images show representative cells of three independent experiments. Quantitative data are mean values ± SD of ten randomly selected cells per transfection of one representative experiment (graph). Scale bars: 10 µm. Statistics: one-way ANOVA. p-values: *p ≤ 0.05, **p ≤ 0.01, ***p ≤ 0.001, ****p ≤ 0.0001. Source data and exact p-values in the Source Data file.
(§3) AlphaScreen experiments were performed in 96- or 384-well plates (Perkin Elmer, OptiPlate). In both assay formats, His-TRAF and GST-LMP1, GST-CD40, or GST-RANK proteins were incubated together in 40 µL of PBS (protein concentrations were calculated to the final reaction volume of 60 µL) supplemented with 0.5% BSA (Sigma, #A7030) and 0.1% Tween-20 (AppliChem, #A4974), for 1 h at room temperature (RT). If not indicated otherwise, standard protein concentrations were 300 nM for His-TRAF proteins and 100 nM for GST-LMP1 proteins. Ni-NTA-acceptor (Perkin Elmer, #6760619 C) and GST-acceptor (Perkin Elmer, # 6765300) beads were added each to a final concentration of 1–4 µg per mL in a final reaction volume of 60 µL and incubated for 1 h at RT in the dark. AlphaScreen PPI signals were measured in a CLARIOstar reader (BMG Labtech GmbH).
(Bead proximity is the source of the signal in Alpha formats.)

Data set [5] deals with GST-CD40_216-277. Briefly: AlphaScreen PPI, TRAF6 mutants binding to CD40. Details: species or system human; TRAF6 binding to CD40 (AlphaScreen), mean: unit not given here. The method, then:
as §2, §3

Data set [6] deals with HA-LMP1. Briefly: Confocal immunofluorescence colocalization of Flag-TRAF6 with HA-LMP1 in HeLa cells. The format is cell-based, Epstein-Barr virus. The protocol: HeLa cells were seeded onto cover glasses (Thermo Scientific, Menzel) in 24-well plates one day before transfection. Cells were transfected at 50–60% confluency with 50 ng of pCMV-HA-LMP1 plasmids and 100 ng of pRK5-Flag-TRAF6 plasmids, adjusted to a total of 500 ng DNA per sample with pRK5 empty vector, using Lipofectamine 2000 (Thermo Fisher Scientific) according to the manufacturer’s instructions. At 24 h posttransfection, cells were washed once with PBS and fixed with 4% paraformaldehyde (Sigma-Aldrich) for 20 min at RT, followed by permeabilization with 0.3% (v/v) Triton X-100 and blocking with 5% (v/v) FBS in PBS for 1 h at RT. For immunostaining, the cells were incubated overnight with the primary antibodies α-HA (1:1000, clone 16B12, BioLegend) and α-DYKDDDDK (1:1000, clone L5, BioLegend) at 4 °C. The secondary antibodies goat α-mouse Alexa 488 (1:500, cross-adsorbed, Invitrogen, #A-11029) and goat α-rat Alexa 555 (1:500, cross-adsorbed, Invitrogen, #A-21434) were added for 1.5 h at RT. Microscope slides were sealed with cover glasses using Mowiol mounting medium (Sigma-Aldrich). Nuclei were stained with Hoechst 33258 (Sigma-Aldrich). All samples were imaged using a Leica TCS SP5 confocal microscope with 405 nm, 488 nm, 543 nm or 633 nm laser lines, scanning each channel separately under image capture conditions that eliminated channel overlap. For each single experiment, 10 transfected cells positive for both constructs were randomly captured as single-cell images for quantification. The resulting images were then analyzed using the Leica TCS SP5 colocalization analyses application (LAS AF Version 2.7.3.9723). Analysis was performed with default parameters.

For “GTTTGAGCTGAGCGAGATCG (expressed or natural sequence) [ICAM1 gRNA]”, the “cell survival (selection score), Figure 6 b” value in data set [1] (replicate 1) is 1.006; in data set [1] (replicate 2), 1.221; in data set [1] (replicate 3), 0.6632; in data set [1] (replicate 4), 1.293; in data set [1] (replicate 5), 1.126; in data set [2] (replicate 1) it was 1.189. The “cell survival (selection score), Figure 6 b” value is on record as 1.169 in data set [2] (replicate 2); 1.095 in data set [2] (replicate 3); 0.9472 in data set [2] (replicate 4); 1.162 in data set [2] (replicate 5); 1.151 in data set [2] (replicate 6). For the same molecule, the “cell survival (selection score), mean” value is 1.062 in data set [1] (mean (NT mean = 1), n = 9 LMP1, 10 TRAF6, 5 ICAM1) and 1.119 in data set [2] (mean (NT mean = 1), n = 9 LMP1, 10 TRAF6, 6 ICAM1).

B1: K469A (protein, UniProt Q9Y4K3 1-522, looked up, variant K469A)
TNF receptor-associated …: MSLLNCENSCGSSQSESDCCVAMASSCSAVTKDDSVGGTASTGNLSSSFMEEIQGYDVEFDPPLESKYECPICLMALREAVQTPCGHRFCKACIIKSIRDAGHKCPVDNEILLENQLFPDNFAKREILSLMVKCPNEGCLHKMELRHLEDHQAHCEFALMDCPQCQRPFQKFHINIHILKDCPRRQVSCDNCAASMAFEDKEIHDQNCPLANVICEYCNTILIREQMPNHYDLDCPTAPIPCTFSTFGCHEKMQRNHLARHLQENTQSHMRMLAQAVHSLSVIPDSGYISEVRNFQETIHQLEGRLVRQDHQIRELTAKMETQSMYVSELKRTIRTLEDKVAEIEAQQCNGIYIWKIGNFGMHLKCQEEEKPVVIHSPGFYTGKPGYKLCMRLHLQLPTAQRCANYISLFVHTMQGEYDSHLPWPFQGTIRLTILDQSEAPVRQNHEEIMDAKPELLAFQRPTIPRNPAGFGYVTFMHLEALRQRTFIKDDTLLVRCEVSTRFDMGSLRREGFQPRSTDAGV
Consider B1, for which the “coprecipitated HA-LMP1 signal (densitometry), mean” value in data set [3] (HEK293, mean of n = 3) came out at 17563327. In addition, in data set [3] (coimmunoprecipitation), the “interaction of TRAF6 mutants with LMP1 in HEK293 cells (in words)” value was “no negative effect on the interaction”. In addition, in data set [4] (AlphaScreen PPI), the “effect of TRAF6 mutation on binding to LMP1 (in words)” value is given as “did not affect the TRAF6 interaction with LMP1 or CD40”. Further, in data set [4] (Figure 2a, mean of n = 3), the “TRAF6 binding to LMP1 (AlphaScreen), mean” value came out at 102.4. Further, the “TRAF6 binding to LMP1 (AlphaScreen)” value in data set [4] (Figure 2a, relative to mean wt 100, replicate 1) worked out at 73.0; in data set [4] (Figure 2a, replicate 2) it was 116.6; in data set [4] (Figure 2a, replicate 3), 117.5. Also, in data set [5] (AlphaScreen PPI), the “effect of TRAF6 mutation on binding to CD40 (in words)” value was “did not affect the TRAF6 interaction with LMP1 or CD40”. Moreover, the “TRAF6 binding to CD40 (AlphaScreen), mean” value in data set [5] (Figure 2b, mean of n = 3) was determined as 89.86. The “TRAF6 binding to CD40 (AlphaScreen)” value in data set [5] (Figure 2b, relative to mean wt 100, replicate 1) was found to be 52.8; in data set [5] (Figure 2b, replicate 2), 105.6; in data set [5] (Figure 2b, replicate 3) it was 111.2. In data set [6] (confocal microscopy), the “colocalization with HA-LMP1 (in words)” value is on record as “colocalized to a high extent with HA-LMP1 clusters”. Also, the “colocalization of TRAF6 with LMP1, mean” value in data set [6] (mean of ten cells) is on record as 98.27.
